In PMC4263667, “Nanobody Mediated Inhibition of Attachment of F18 Fimbriae Expressing Escherichia coli” (PLoS ONE, 2014) one finds Kd data, which are given here for four molecules.

The labels stand for the following.
T1: FedF_(15–165), N-terminal lectin domain of the F18 fimbrial tip adhesin FedF (Escherichia coli (F18-fimbriated …, NT647 on surface exposed amine groups (in the MST only)))
T1 construct: also called FedF lectin domain
T1 chain: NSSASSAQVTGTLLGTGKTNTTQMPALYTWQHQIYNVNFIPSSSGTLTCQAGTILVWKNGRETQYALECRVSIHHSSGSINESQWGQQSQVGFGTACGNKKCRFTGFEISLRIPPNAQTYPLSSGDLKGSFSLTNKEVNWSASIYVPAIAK

B1: NbFedF7 (VHH)
VHH: QVQLQESGGGSVQAGGSLRLSCTASGYTYRKYCMGWFRQAPGKEREGVACINSGGGTSYYADSVKGRFTISQDNAKDTVFLRMNSLKPEDTAIYYCALSSNSVCPPGHVAWYNDWGQGTQVTVSS
notes: source: E. coli WK6, periplasmic extract, purified (Ni-NTA); not shown: His6, C-terminal, kept
B2: NbFedF12 (VHH)
VHH: QVQLQESGGGSVQAGGSLRLSCAASGNTKSYWMGWFRQAPGKEREGVAVIAGGGAFTYYAESVKGRFTISQDNTKDTVYLAMNSLKPEDTALYYCALRTLNNGGIFLLNSPSSFHYWGQGTQVTVSS
notes: source: E. coli WK6, periplasmic extract, purified (Ni-NTA)
B3: NbFedF6 (VHH)
VHH: QVQLQESGGGSVQAGGSLRLSCAASGYTSGRDSMGWFRQAPGKEREGVACIDTSGIVNYADSVKGRFTISQDSAKKTLYLEMNSLKPEDTALYSCATGPFVYGRGCLGQAFYSYWGQGTQVTVSS
notes: as for B1
B4: NbFedF9 (VHH)
VHH: QVQLQESGGGSVQAGGSLRLSCAASGYTYSSNCMAWFRQVPGKEREGVASINTRGGITYYADSVKGRFTISRDNAKNTVSLQMNSLKPEDTATYYCAAVREATYSDNRCSVRSYTYDYWGQGTQVTVSS
notes: as for B1

This experiment addresses T1, FedF_(15–165), N-terminal lectin domain …. The experiment is described as follows: MST. The note with it: both partners purified.
B1 came in with a Kd of 5.25 nM.
B2: binding was put at a Kd of 29 nM.
With B3, the Kd turned out to be 3.57 nM.
As for B4, the Kd is 1.58 nM.

Usually Kd stands for a measure of binding affinity in units of concentration. Read a low Kd as tighter binding.
